These are literature values, as cited in paper PMC12759081.

The data set has as its target PDS5B (Homo sapiens) (UniProt Q9NTI5). The experiment in a line: ITC. Background: Isothermal titration calorimetry measures the heat released or taken up as one component is titrated into another.

Sequence of PDS5B (Homo sapiens) (Q9NTI5 whole entry): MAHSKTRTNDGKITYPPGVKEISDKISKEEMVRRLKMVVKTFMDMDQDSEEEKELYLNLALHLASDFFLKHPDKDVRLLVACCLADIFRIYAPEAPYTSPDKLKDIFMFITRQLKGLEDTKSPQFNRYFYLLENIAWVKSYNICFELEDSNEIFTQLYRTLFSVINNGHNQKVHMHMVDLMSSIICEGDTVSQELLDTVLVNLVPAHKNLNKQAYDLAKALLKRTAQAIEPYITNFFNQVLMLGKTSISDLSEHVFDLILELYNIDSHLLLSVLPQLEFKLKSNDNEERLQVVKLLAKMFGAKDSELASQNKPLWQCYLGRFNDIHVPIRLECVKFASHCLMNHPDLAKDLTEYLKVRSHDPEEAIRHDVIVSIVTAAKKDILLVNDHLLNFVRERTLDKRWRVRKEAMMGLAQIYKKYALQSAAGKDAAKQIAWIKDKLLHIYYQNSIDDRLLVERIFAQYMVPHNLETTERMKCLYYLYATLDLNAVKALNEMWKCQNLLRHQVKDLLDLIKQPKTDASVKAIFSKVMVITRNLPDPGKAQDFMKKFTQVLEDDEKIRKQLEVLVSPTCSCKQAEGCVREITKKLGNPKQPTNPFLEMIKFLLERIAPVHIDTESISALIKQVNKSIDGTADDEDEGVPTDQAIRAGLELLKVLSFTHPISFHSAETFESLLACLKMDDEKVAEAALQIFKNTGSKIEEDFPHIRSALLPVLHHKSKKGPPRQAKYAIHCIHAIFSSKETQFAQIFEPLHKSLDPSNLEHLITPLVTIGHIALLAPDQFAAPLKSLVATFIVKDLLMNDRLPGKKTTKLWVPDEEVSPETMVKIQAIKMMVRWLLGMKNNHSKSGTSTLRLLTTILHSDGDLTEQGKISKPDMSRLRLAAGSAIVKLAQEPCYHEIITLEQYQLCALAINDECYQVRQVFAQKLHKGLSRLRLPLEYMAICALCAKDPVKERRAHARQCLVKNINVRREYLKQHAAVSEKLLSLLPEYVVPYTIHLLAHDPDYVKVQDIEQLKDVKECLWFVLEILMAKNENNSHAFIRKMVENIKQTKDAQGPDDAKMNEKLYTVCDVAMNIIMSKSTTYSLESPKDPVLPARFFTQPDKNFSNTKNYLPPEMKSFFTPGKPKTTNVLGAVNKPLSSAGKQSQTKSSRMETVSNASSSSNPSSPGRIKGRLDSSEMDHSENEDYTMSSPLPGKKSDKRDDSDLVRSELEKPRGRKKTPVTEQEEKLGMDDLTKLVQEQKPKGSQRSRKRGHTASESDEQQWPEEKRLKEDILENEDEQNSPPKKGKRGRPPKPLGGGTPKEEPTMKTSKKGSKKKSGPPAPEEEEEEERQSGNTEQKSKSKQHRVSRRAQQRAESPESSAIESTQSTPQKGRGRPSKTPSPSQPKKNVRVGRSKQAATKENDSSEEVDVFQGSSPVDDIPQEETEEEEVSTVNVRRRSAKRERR
Sequence of Wapl (Q7Z5K2 whole entry): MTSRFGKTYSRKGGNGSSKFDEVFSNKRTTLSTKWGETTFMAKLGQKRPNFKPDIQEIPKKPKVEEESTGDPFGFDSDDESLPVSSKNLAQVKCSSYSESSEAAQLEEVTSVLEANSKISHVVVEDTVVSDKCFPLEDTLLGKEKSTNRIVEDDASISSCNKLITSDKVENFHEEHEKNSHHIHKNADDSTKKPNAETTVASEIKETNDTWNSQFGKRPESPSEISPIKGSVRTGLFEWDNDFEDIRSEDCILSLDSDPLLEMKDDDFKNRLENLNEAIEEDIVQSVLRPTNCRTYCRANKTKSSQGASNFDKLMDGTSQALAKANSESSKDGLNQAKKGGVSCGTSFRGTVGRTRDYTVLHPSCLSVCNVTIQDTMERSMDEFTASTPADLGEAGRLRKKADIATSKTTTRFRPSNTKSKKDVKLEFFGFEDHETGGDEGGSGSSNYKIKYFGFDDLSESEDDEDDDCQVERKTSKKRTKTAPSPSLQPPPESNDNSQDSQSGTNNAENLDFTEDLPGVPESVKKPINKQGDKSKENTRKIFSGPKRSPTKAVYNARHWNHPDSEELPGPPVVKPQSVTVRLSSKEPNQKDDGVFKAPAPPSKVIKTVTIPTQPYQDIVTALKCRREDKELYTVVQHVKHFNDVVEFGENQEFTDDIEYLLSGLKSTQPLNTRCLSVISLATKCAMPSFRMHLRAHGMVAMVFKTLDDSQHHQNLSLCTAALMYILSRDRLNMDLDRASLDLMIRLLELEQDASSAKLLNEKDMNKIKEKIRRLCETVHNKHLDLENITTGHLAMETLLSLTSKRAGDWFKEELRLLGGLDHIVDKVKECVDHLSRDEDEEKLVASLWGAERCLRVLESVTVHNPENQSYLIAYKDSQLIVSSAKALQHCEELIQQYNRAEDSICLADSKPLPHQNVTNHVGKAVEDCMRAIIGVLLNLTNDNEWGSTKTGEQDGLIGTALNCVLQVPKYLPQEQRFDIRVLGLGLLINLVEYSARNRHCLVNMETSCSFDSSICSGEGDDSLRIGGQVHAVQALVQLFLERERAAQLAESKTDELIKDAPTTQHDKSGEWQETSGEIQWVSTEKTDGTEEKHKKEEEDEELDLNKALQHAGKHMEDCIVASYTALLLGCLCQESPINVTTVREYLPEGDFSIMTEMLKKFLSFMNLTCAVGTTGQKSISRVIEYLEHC

The Kd is the concentration at which binding is half-saturated. On to Wapl (from UniProt Q7Z5K2), for which the equilibrium dissociation constant (Kd) is 6 µM.
